Measurements from the supplement of paper PMC10065799, “High-throughput profiling of sequence recognition by tyrosine kinases and SH2 domains using bacterial peptide display” (eLife, 2023).

Assays:
Grb2 SH2 = Grb2 SH2 (UniProt P62993); assay: SH2 binding enrichment of the phosphorylated peptide, bacterial display (enrichment ratio); higher = better substrate or ligand; peptides without Tyr show the background
c-Src SH2 = assay: as above
SHP2-C SH2 = assay: as above
FGFR3 = FGFR3 (UniProt P22607); assay: phosphorylation enrichment, bacterial display (enrichment ratio); higher = better substrate or ligand; peptides without Tyr show the background
MERTK = MERTK (UniProt Q12866); assay: as above
Hck = Hck (UniProt P08631); assay: as above
AncSZ = assay: as above
Jak2 = Jak2 (UniProt O60674); assay: as above
Fyn = Fyn (UniProt P06241); assay: as above
FGFR1 = FGFR1 (UniProt P11362); assay: as above
Fes = Fes (UniProt P07332); assay: as above
c-Abl (mouse) = assay: as above
EPHB2 = EPHB2 (UniProt P29323); assay: as above
c-Src = assay: as above
EPHB1 = EPHB1 (UniProt P54762); assay: as above
Fer (mouse) = assay: as above
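Throughout, for SH2 binding enrichment of the phosphorylated peptide, bacterial display: peptide library displayed on the E. coli surface as eCPX fusions, selected cells deep-sequenced, score is each peptide's frequency after selection divided by its frequency in the input.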
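Throughout, for phosphorylation enrichment, bacterial display: 11-residue human phosphosite peptides and single-mutation variants displayed on the E. coli surface, counted by deep sequencing, each peptide's frequency after selection divided by its frequency in the unselected input library; frequency after pTyr selection over input frequency; kinase dosed for 20-30% of maximal phosphorylation in three min.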

Chain of EPHB2 (P29323 whole entry, looked up): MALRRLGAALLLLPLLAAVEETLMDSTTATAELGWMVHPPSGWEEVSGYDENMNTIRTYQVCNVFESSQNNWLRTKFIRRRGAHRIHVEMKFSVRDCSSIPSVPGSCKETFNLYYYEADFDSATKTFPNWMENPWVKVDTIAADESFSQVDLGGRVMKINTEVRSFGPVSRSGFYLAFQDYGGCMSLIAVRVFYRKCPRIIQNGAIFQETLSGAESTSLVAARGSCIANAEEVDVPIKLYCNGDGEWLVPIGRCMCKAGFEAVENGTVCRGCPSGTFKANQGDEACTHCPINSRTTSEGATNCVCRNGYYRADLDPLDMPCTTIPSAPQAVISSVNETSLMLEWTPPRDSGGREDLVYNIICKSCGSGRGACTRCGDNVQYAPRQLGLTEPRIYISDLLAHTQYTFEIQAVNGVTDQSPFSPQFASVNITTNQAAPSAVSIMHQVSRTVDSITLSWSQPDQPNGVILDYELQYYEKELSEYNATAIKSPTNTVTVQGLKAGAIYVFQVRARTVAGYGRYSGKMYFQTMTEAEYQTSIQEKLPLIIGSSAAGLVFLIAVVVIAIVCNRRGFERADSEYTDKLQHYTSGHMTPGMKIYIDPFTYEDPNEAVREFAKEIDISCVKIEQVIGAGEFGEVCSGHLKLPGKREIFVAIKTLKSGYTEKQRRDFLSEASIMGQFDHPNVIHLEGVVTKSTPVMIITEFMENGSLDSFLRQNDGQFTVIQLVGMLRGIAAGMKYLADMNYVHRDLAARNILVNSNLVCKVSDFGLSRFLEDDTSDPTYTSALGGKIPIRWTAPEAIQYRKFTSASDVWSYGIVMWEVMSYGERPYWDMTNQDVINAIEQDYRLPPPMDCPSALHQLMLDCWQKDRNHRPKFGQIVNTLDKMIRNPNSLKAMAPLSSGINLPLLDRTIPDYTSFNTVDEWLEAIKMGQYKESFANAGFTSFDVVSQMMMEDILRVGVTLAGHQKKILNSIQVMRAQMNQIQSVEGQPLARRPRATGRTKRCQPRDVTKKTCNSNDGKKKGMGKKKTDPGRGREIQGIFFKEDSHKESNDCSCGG
Chain of Fyn (P06241 whole entry, looked up): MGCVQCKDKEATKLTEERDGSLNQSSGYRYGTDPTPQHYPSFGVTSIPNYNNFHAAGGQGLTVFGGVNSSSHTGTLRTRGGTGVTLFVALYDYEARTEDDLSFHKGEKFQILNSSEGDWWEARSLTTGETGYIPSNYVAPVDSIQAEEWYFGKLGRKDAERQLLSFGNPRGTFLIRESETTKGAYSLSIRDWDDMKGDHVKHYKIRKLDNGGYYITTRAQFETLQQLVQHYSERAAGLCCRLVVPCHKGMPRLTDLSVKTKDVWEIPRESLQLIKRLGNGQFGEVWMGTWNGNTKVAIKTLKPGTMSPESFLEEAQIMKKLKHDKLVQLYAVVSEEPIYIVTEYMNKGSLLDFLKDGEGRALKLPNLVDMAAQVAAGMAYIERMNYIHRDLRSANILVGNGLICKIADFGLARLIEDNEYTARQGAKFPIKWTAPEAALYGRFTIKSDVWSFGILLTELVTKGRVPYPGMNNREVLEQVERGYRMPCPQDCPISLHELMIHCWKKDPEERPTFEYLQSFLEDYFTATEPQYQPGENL
Chain of Fes (P07332 whole entry, looked up): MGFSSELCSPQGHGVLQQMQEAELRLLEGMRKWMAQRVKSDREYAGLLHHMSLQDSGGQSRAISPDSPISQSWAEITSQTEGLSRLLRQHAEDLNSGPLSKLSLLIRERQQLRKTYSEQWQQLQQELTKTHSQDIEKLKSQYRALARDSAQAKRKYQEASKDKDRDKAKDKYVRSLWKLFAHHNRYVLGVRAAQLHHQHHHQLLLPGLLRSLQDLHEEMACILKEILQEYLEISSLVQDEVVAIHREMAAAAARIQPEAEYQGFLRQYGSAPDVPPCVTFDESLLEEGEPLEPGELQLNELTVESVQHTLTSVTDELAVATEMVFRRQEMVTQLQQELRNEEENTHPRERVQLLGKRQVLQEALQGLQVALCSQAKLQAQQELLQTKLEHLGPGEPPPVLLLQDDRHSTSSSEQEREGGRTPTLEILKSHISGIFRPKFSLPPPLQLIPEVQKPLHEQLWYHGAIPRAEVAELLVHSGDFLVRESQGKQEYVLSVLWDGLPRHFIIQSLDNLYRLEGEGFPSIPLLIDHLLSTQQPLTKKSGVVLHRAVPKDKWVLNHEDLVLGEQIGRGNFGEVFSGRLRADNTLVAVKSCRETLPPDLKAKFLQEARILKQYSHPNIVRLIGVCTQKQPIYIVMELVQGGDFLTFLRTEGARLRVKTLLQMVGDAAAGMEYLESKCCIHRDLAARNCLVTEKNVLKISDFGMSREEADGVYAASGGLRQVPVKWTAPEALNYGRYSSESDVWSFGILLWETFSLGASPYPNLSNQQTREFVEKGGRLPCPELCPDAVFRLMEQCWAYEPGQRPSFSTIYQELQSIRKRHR
Chain of Hck (P08631 whole entry, looked up): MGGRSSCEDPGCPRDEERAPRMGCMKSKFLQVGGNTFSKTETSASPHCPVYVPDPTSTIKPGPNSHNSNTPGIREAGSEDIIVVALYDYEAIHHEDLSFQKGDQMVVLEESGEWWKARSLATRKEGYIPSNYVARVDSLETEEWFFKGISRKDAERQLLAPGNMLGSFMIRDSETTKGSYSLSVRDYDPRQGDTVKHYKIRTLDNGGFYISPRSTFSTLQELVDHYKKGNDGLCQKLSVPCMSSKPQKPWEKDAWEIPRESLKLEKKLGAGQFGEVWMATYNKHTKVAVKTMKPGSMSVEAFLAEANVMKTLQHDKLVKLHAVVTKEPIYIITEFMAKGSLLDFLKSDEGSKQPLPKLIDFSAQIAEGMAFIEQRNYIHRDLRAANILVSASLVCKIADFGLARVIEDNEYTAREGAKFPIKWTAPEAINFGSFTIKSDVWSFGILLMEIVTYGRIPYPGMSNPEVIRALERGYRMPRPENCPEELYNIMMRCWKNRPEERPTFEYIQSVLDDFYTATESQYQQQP
Chain of MERTK (Q12866 whole entry, looked up): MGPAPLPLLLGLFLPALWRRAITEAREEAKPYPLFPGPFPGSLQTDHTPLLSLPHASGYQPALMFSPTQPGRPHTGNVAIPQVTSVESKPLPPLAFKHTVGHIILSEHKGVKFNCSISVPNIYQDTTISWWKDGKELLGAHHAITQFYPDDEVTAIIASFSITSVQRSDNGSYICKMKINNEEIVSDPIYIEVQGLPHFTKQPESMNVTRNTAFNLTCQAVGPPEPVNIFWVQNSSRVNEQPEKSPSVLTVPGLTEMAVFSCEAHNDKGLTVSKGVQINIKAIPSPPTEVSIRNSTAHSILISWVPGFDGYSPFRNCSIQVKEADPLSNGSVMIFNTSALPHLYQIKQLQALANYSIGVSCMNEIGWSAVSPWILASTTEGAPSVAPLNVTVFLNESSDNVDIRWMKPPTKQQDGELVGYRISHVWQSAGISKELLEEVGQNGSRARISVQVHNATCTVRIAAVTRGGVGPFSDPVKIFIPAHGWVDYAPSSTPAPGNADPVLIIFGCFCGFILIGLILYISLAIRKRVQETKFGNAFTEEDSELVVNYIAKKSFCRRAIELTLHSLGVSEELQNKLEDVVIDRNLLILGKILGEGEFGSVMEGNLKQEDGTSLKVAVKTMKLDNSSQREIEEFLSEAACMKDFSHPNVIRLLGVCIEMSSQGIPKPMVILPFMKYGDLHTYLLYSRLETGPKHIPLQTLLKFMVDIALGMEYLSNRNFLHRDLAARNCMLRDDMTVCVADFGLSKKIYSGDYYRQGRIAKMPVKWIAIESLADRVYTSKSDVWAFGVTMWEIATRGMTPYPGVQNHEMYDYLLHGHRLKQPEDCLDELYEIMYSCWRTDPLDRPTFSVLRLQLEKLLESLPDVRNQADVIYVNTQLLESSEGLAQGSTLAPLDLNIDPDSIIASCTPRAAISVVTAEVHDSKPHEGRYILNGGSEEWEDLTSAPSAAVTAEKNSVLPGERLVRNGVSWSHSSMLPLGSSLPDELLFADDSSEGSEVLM
Chain of FGFR3 (P22607 whole entry, looked up): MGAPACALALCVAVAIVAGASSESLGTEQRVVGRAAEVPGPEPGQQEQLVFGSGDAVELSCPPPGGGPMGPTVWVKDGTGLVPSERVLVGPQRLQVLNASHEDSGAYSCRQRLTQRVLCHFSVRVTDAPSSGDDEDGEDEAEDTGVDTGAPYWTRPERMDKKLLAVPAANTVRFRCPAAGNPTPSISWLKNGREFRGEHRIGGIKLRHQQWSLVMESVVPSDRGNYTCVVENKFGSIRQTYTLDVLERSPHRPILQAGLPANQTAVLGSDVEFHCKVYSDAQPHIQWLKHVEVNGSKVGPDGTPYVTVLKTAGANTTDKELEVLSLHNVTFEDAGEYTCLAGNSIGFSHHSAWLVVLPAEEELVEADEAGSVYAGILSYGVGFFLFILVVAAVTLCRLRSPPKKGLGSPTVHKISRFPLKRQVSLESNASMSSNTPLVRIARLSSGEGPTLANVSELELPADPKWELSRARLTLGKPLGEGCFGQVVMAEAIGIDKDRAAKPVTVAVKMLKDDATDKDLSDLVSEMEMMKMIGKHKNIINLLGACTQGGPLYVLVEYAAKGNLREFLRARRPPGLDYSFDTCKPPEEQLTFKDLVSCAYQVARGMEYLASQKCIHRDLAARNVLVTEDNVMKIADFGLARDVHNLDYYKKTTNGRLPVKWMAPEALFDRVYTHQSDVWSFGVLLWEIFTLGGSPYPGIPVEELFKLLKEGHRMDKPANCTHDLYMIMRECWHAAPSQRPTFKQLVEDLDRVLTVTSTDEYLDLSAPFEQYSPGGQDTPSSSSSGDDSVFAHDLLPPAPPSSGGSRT

SH2 binding enrichment (Grb2 SH2) | SH2 binding enrichment (c-Src SH2) | SH2 binding enrichment (SHP2-C SH2) | Sequence | phosphorylation enrichment (FGFR3) | phosphorylation enrichment (MERTK) | phosphorylation enrichment (Hck) | phosphorylation enrichment (AncSZ) | phosphorylation enrichment (Jak2) | phosphorylation enrichment (Fyn) | phosphorylation enrichment (FGFR1) | phosphorylation enrichment (Fes) | phosphorylation enrichment (c-Abl (mouse)) | phosphorylation enrichment (EPHB2) | phosphorylation enrichment (c-Src) | phosphorylation enrichment (EPHB1) | phosphorylation enrichment (Fer (mouse))
0.998 | 0.566 | 0.595 | RNAAEYLLSSG [ABL1_Y139] | 0.446 | 0.294 | 0.48 | 0.765 | 0.667 | 0.35 | 0.456 | 0.723 | 0.353 | 0.345 | 0.34 | 0.38 | 0.596
0.669 | 0.586 | 0.839 | RNFVRYVQGLK [VWF_Y1400] | 0.445 | 0.48 | 0.339 | 0.277 | 0.556 | 0.511 | 0.255 | 0.599 | 0.548 | 0.37 | 0.566 | 0.324 | 0.309
0.809 | 0.623 | 0.718 | RPLVVYPWTQR [HBB_Y36_L32P] | 0.45 | 0.389 | 0.407 | 0.728 | 0.445 | 0.468 | 0.473 | 0.748 | 0.509 | 0.695 | 0.446 | 1.11 | 0.358
0.915 | 0.508 | 0.476 | RPQDGYRIVQH [PTPRT_Y1329] | 0.625 | 0.493 | 0.586 | 0.797 | 0.534 | 0.554 | 0.557 | 0.708 | 0.74 | 0.565 | 0.649 | 0.406 | 0.591

The next lines start with the sequence.

Sequence | SH2 binding enrichment (Grb2 SH2) | SH2 binding enrichment (c-Src SH2) | SH2 binding enrichment (SHP2-C SH2) | phosphorylation enrichment (FGFR3) | phosphorylation enrichment (MERTK) | phosphorylation enrichment (Hck) | phosphorylation enrichment (AncSZ) | phosphorylation enrichment (Jak2) | phosphorylation enrichment (Fyn) | phosphorylation enrichment (FGFR1) | phosphorylation enrichment (Fes) | phosphorylation enrichment (c-Abl (mouse)) | phosphorylation enrichment (EPHB2) | phosphorylation enrichment (c-Src) | phosphorylation enrichment (EPHB1) | phosphorylation enrichment (Fer (mouse))
RNDLDYMDSRR [GAA_Y407_W402R] | 0.971 | 0.422 | 0.552 | 0.645 | 0.528 | 0.509 | 0.809 | 0.798 | 0.455 | 0.512 | 0.81 | 0.779 | 0.408 | 0.555 | 0.426 | 0.341
RNVLVYDKLNV [ROR2_Y624] | 1.06 | 0.908 | 0.535 | 0.787 | 3.88 | 13.9 | 0.933 | 0.632 | 5.08 | 0.614 | 0.64 | 2.12 | 1.97 | 3.99 | 1.97 | 3.9
RPSRQYATLDV [SCAMP3_Y35] | 0.899 | 9.6 | 6.79 | 0.336 | 0.379 | 0.376 | 0.373 | 0.42 | 0.315 | 0.37 | 0.461 | 0.381 | 0.33 | 0.319 | 0.331 | 0.313
